Test results as given in patent US20130084301A1 (published 2013).

Columns and labels:
[1] = biological target: T1, HCV 1a E2 with alanine substitution at 443 (hepatitis C virus genotype 1a, H77c, UniProt P27958 384-746); experiment: alanine-substitution ELISA
[2] = biological target: HCV 1a E2 with alanine substitution at 616 (hepatitis C virus genotype 1a, H77c, UniProt P27958 384-746); experiment: alanine-substitution ELISA
[3] = biological target: T2, HCV 1a E2 with alanine substitution at 429 (hepatitis C virus genotype 1a, H77c, UniProt P27958 384-746); experiment: alanine-substitution ELISA
[4] = biological target: T3, HCV 1a E2 with alanine substitution at 442 (hepatitis C virus genotype 1a, H77c, UniProt P27958 384-746); experiment: alanine-substitution ELISA
[5] = biological target: HCV 1a E2 with alanine substitution at 420 (hepatitis C virus genotype 1a, H77c, UniProt P27958 384-746); experiment: alanine-substitution ELISA, antibody 2 ug/ml
[6] = biological target: T4, HCV 1a E2 with alanine substitution at 441 (hepatitis C virus genotype 1a, H77c, UniProt P27958 384-746); experiment: alanine-substitution ELISA, antibody 2 ug/ml
[7] = biological target: HCV 1a E2 with alanine substitution at 437 (hepatitis C virus genotype 1a, H77c, UniProt P27958 384-746); experiment: alanine-substitution ELISA, antibody 2 ug/ml
[8] = biological target: HCV 1a E2 with alanine substitution at 428 (hepatitis C virus genotype 1a, H77c, UniProt P27958 384-746); experiment: alanine-substitution ELISA, antibody 2 ug/ml
[9] = biological target: T1, HCV 1a E2 with alanine substitution at …; experiment: alanine-substitution ELISA; row marked *: tested at 0.2 ug/ml
[10] = biological target: T2, HCV 1a E2 with alanine substitution at …; experiment: as above
[11] = biological target: T4, HCV 1a E2 with alanine substitution at …; experiment: as above
[12] = biological target: T3, HCV 1a E2 with alanine substitution at …; experiment: as above
[13] = biological target: T1, HCV 1a E2 with alanine substitution at …; experiment: alanine-substitution ELISA, antibody 2 ug/ml
[14] = biological target: T2, HCV 1a E2 with alanine substitution at …; experiment: alanine-substitution ELISA, antibody 2 ug/ml
[15] = biological target: T3, HCV 1a E2 with alanine substitution at …; experiment: alanine-substitution ELISA, antibody 2 ug/ml
[16] = biological target: HCV 1a E2 with alanine substitution at 613 (hepatitis C virus genotype 1a, H77c, UniProt P27958 384-746); experiment: alanine-substitution ELISA, antibody 2 ug/ml

Binder | binding result [2] | binding result [3] | % of binding to wt E2 [5] | % of binding to wt E2 [6] | % of binding to wt E2 [7] | % of binding to wt E2 [8] | % of binding to wt E2 [13] | % of binding to wt E2 [15] | further results
HC-84.22 (antibody, V domains shown) VH: EVQLVQSGAEVKKPGSSVKVSCKASGDTFSSYSIHWVRQAPGQGLEWMGRIIPIVGLVDYAQMFQGRVTISADRSTNTVYMDLSNLRSEDTAIYYCARSLGCPNGVCHGPRAADYFDYWGQGTLVTVSS VL: EMTLTQSPSSLSASVGDRVTITCRASQSISSWLAWYQQKPGKAPKLLIYDASNLETGVPSRFSGSGSGTDFTFTISSLQPEDIATYYCQQYDNLPRTFGQGTKVDIKR | no binding (tested: 2 ug/ml) | no binding (tested: 2 ug/ml) | 18% | 2% | 8% | 19% | – | – | binding result [1]: no binding (tested: 2 ug/ml); binding result [4]: no binding (tested: 2 ug/ml)
HC-84.23 (antibody, V domains shown, also called HC-23) VH: QVQLVESGAEVKKPGSSVKVSCKASGDTFSSYSIHWVRQAPGQGLEWMGRIIPIVGLVDYAQMFQGRVTISADRSTNTVYMDLSNLRSEDTAYYCARASLGCPNGVCHGPRAADYFDYWGQGTLVTVSS VL: EIVLTQSPGTVSLFPGDRVTLSCRASQRVPSSSLAWYQQKPGQAPRLLLYGASSRATGIPDRFSGRGSGTDFALSISRLEPEDFAVYYCQQYGSSLITFGQGTRLEIKR | – | – | 20% | 2% | 15% | 20% | – | – | –
HC-84.21 (antibody, V domains shown, also called CBH-84.21) VH: QVQLVQSGAEVKKPGSSVKVSCKASGTSFNRYTFAWVRQAPGQGLEWVGTIIPIVGLTNYAEKFQGRVSITADKSTSTTYMELSSLRSEDTAVYFCARKVEFWLGEIAPNKFDVFDLWGQGTMVTVSS VL: EIVLTQSPDSLAVSLGERATIHCKSSQSIFFSSNSKDYLAWYQQKPGQPPKLLIYWASTRDSGVPDRFSGSGSGTDFTLTITGLQADDAAVYYCQQFDTPQITFGGGTKLEIKR | – | – | – | – | – | – | – | – | % of binding to wt E2 [9]: 35%; % of binding to wt E2 [10]: 15%; % of binding to wt E2 [11]: 28%; % of binding to wt E2 [12]: 20%
HC-84.24 (antibody, V domains shown) VH: QVQLVQSGAEVKKPGSSVKVSCKASGGTFSLNSLSWVRQAPGQGLEWMGTIIPIVGIANYAQKFQGRVTITADKSTGTAYMDLSSLSDDTAVYFCARELYSGTGFFRLEALDYWGQGTLVTVSS VL: DIQMTQSPATLSLSPGERATLSCRASQSVSSYLAWYQQKPGQAPRLLIYDASNRATGIPARFIAGGSGTDFTLTISSLEPEDFAVYYCQQYGSPQTFGQGTKLEIKR | – | – | – | – | – | – | 1% | 14% | % of binding to wt E2 [14]: 1%
HC-84.20 (antibody, V domains shown) VH: QVQLVQSGSEVKKPGSSVKVSCKASGGTFNIYTVNWVRQAPGQGLEWMGRIIPMLGSADYAQRFQGRVTISADKSTSTAYMELRNLKSEDTAVYYCARSLPREMFFRDDAFDIWGQGTMVTVSS VL: ETTLTQSPGTLSLSPGERATLSCRASQSVSSNLAWYQQKPGQAPRLLIYGASTRATGIPDRFSGSGSGTDFTLTISRLEPDDFVVYYCQQYGSSPVTFGQGTRLEIKR | no binding (tested: 2 ug/ml) | no binding (tested: 2 ug/ml) | – | 6% | – | – | 26% | 26% | % of binding to wt E2 [16]: 20%
